From patent US20080058263A1 (published 2008)
Changes are numbered by the printed parent chain.

T1: VEGFR-3-Fc (UniProt P35916 25-328)
T1 construct: domain: first three Ig domains; conditioned supernatant of 293T cells; also called VEGFR-3-Fc fusion protein; not shown: Fc fragment of the pIg vector
T1 sequence (looked up): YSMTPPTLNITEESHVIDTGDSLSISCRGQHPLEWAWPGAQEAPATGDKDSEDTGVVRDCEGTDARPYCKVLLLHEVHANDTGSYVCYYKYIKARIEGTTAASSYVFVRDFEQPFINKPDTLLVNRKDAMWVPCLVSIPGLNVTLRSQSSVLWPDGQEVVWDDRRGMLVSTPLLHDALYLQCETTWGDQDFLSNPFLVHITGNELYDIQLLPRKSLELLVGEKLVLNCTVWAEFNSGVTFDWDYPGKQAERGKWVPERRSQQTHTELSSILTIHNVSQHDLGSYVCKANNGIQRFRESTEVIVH

B1: 23-14 (ligand)
chain: AHYNTEILKSIDNEWRKTQCMPREVCIDVGKEYPDEIEYIFKPPCVSVYRCGGCCNDEGLECMNTSTSYLSKTLFEITVPLSQGPKPVTISFANHTSCRCMSKLD
B2: 23-12 (ligand)
chain: B1 chain with D57S, E61Q, A93L, N94Q, T96N, S97K, R99E, M101R, S102P, L104K
B3: 51-14 (ligand)
chain: AHYNTEILKSIDNEWRKTQCMPIETLVDIFQEYPDEIEYIFKPSCVPLMRCGGCCNDEGLECMNTSTSYLSKTLFEITVPLSQGPKPVTISFANHTSCRCMSKLD
B4: 71-14 (ligand)
chain: GQNHHEVVKSIDNEWRKTQCMPREVCIDVGKEYPDEIEYIFKPSCVPLMRCGGCCNDEGLECMNTSTSYLSKTLFEITVPLSQGPKPVTISFANHTSCRCMSKLD
B5: 53-14 (ligand)
chain: B3 chain with S44P, P47S, L48V, M49Y
B6: 73-16 (ligand)
chain: B4 chain with S44P, P47S, L48V, M49Y, D57S, E61Q
B7: 53-16 (ligand)
chain: B3 chain with S44P, P47S, L48V, M49Y, D57S, E61Q
B8: 21-10 (ligand)
chain: AHYNTEILKSIDNEWRKTQCMPREVCIDVGKEYPDEIEYIFKPSCVPLMRCGGCCNDEGLECMNTSTSYLSKTLFEITVPLSQGPKPVTISFLQHNKCECRPKKD
B9: 73-14 (ligand)
chain: B4 chain with S44P, P47S, L48V, M49Y
B10: 21-16 (ligand)
chain: B1 chain with P44S, S47P, V48L, Y49M, D57S, E61Q
B11: 23-10 (ligand)
chain: B8 chain with S44P, P47S, L48V, M49Y
notes: clone entry
B12: 41-3 (ligand)
chain: AHYNTEILKFMDVYQRSYCHPREVCIDVGKEYPDEIEYIFKPSCVPLMRCGGCCNSEGLQCVPTEESNITMQIMRIKPHQGQHIGEMSFLQHNKCECRPKKD
B13: 43-3 (ligand)
chain: B12 chain with S43P, P46S, L47V, M48Y
B14: 43-1 (ligand)
chain: B12 chain with S43P, P46S, L47V, M48Y, S56D, Q60E
B15: 42-3 (ligand)
chain: AHYNTEILKFMDVYQRSYCHPREVCIDVGKEFGVATNTFFKPPCVSVYRCGGCCNSEGLQCVPTEESNITMQIMRIKPHQGQHIGEMSFLQHNKCECRPKKD
B16: 41-1 (ligand)
chain: B12 chain with S56D, Q60E
B17: 41-5 (ligand)
chain: B12 chain with S56D, Q60E, L90A, Q91N, N93T, K94S, E96R, R98M, P99S, K101L
B18: 73-9 (ligand)
chain: GQNHHEVVKSIDNEWRKTQCMPREVCIDVGKEYPDEIEYIFKPPCVSVYRCGGCCNDEGLECVPTEESNITMQIMRITVPLSQGPKPVTISFLQHNKCECRPKKD
B19: 33-9 (ligand)
chain: B18 chain with R23I, V25T, C26L, I27V, V29I, G30F, K31Q
B20: 72-11 (ligand)
chain: B18 chain with Y33F, P34G, D35V, E36A, I37T, E38N, Y39T, I40F, D57S, E61Q
B21: 73-11 (ligand)
chain: B18 chain with D57S, E61Q
B22: 21-9 (ligand)
chain: AHYNTEILKSIDNEWRKTQCMPREVCIDVGKEYPDEIEYIFKPSCVPLMRCGGCCNDEGLECVPTEESNITMQIMRITVPLSQGPKPVTISFLQHNKCECRPKKD
B23: 23-9 (ligand)
chain: B22 chain with S44P, P47S, L48V, M49Y
B24: 74-9 (ligand)
chain: GQNHHEVVKSIDNEWRKTQCMPREVCIDVGKEFGVATNTFFKPSCVPLMRCGGCCNDEGLECVPTEESNITMQIMRITVPLSQGPKPVTISFLQHNKCECRPKKD
B25: 73-13 (ligand)
chain: B18 chain with L93A, Q94N, N96T, K97S, E99R, R101M, P102S, K104L
B26: 33-1 (ligand)
chain: GQNHHEVVKSIDNEWRKTQCMPIETLVDIFQEYPDEIEYIFKPPCVSVYRCGGCCNDEGLECVPTEESNITMQIMRIKPHQGQHIGEMSFLQHNKCECRPKKD
B27: 33-3 (ligand)
chain: B26 chain with D57S, E61Q
B28: 74-14 (ligand)
chain: B4 chain with Y33F, P34G, D35V, E36A, I37T, E38N, Y39T, I40F

Molecular target: T2, VEGFR-2-Fc (UniProt P35968 20-322)
T2 construct: domain: first 3 Ig domains; conditioned supernatant of 293T cells; also called VEGFR-2-Fc fusion protein; not shown: Fc fragment of the pIg vector
T2 sequence (P35968 20-322): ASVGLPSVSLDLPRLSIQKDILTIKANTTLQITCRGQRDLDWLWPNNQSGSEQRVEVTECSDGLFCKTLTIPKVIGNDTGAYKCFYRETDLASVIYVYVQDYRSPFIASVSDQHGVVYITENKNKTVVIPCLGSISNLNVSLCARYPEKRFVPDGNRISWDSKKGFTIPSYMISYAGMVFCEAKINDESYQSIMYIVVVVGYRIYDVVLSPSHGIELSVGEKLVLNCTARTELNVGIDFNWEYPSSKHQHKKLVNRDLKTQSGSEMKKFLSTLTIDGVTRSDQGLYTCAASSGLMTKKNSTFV
Assay: receptor-Fc IP
Procedure: (§1) The binding assay procedure was identical to the immunoprecipitation using pentahistidine antibody described in Example 2, apart from the composition of the immunoprecipitation (IP) mixes. The IP mixes used for the receptor binding analysis were as follows: For VEGFR-1 binding assays, the IP mix was phosphate buffered saline (PBS) containing 1.5% BSA, 0.06% Tween 20, 3 μg/ml heparin and 400 ng/ml VEGFR-1-Fc fusion protein (100 μl of this IP mix was added to 200 μl of sample supernatant); for VEGFR-2 binding assays, the IP mix was 82% conditioned cell supernatant from 293T cells transiently expressing VEGFR-2-Fc fusion protein in mixture with 18% of a PBS solution that contained 5% BSA, 0.2% Tween 20, and 10 μg/ml heparin (250 μl of IP mix was added to 200 μl of sample supernatant); and for VEGFR-3 binding assays, the IP mix was 82% conditioned cell supernatant from 293T cells transiently expressing VEGFR-3-Fc fusion protein, 18% of PBS containing 5% BSA, 0.2% Tween 20, and 10 μg/ml heparin (250 μl of IP mix was added to 200 μl of sample supernatant).

Binder	binding result
B1	binds
B2	binds
B3	no binding
B4	no binding
B5	no binding
B6	no binding
B7	no binding
B8	no binding
B9	no binding
B10	no binding
B11	binds
B12	no binding
B13	no binding
B14	no binding
B15	no binding
B16	no binding
B17	no binding
B18	no binding
B19	binds
B20	no binding
B21	no binding
B22	no binding
B23	no binding
B24	no binding
B25	no binding
B26	binds
B27	binds
B28	no binding

Molecular target: T1, VEGFR-3-Fc
Assay: receptor-Fc IP
Procedure: as §1

Binder	binding result
B1	no binding
B2	no binding
B3	no binding
B4	no binding
B5	no binding
B6	no binding
B7	no binding
B8	no binding
B9	no binding
B10	no binding
B11	no binding
B12	no binding
B13	no binding
B14	no binding
B15	no binding
B16	no binding
B17	no binding
B18	no binding
B19	no binding
B20	no binding
B21	no binding
B22	no binding
B23	no binding
B24	no binding
B25	no binding
B26	no binding
B27	no binding
B28	no binding

Molecular target: T3, VEGFR-1-Fc (UniProt P17948 27-338)
T3 construct: domain: first three Ig domains; expressed in Drosophila S2 cells, purified on Protein A sepharose; also called VEGFR-1-Fc fusion protein; not shown: Fc fragment from the Signal-pIgPlus vector
T3 sequence (P17948 27-338): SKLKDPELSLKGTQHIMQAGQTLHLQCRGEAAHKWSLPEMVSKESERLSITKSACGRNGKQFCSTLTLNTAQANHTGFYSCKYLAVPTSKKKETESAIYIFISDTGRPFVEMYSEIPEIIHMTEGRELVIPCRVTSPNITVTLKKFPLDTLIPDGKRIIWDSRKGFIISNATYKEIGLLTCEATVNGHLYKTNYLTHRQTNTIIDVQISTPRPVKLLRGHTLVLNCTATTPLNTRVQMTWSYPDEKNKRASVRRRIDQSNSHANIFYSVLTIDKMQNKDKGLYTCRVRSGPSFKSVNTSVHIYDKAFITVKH
Assay: receptor-Fc IP
Procedure: as §1

Binder	binding result
B1	no binding
B2	no binding
B3	no binding
B4	no binding
B5	no binding
B6	no binding
B7	no binding
B8	no binding
B9	no binding
B10	no binding
B11	no binding
B12	no binding
B13	no binding
B14	binds
B15	no binding
B16	binds
B17	no binding
B18	no binding
B19	no binding
B20	no binding
B21	no binding
B22	no binding
B23	no binding
B24	no binding
B25	no binding
B26	no binding
B27	no binding
B28	no binding
